The record followed here is US11702475B2, “Cysteine engineered fibronectin type III domain binding molecules” (Janssen Biotech, Inc., priority 2013, dated 2023).

The IC50 is the concentration that gives 50% inhibition.

The test system of one assay is NCI-H322 cells. Nature of the assay: NCI-H322 growth assay. It counts as cell-based, human. The settings on record: 120 hours, CellTiter-Glo. How it is done:
Inhibition of EGFR-dependent cell growth was assessed by measuring viability of the EGFR over-expressing human tumor cell lines, NCI-H292 and NCI-H322 (American Type Culture Collection, cat. #CRL-1848 & #CRL-5806, respectively), following exposure to EGFR-binding FN3 domains. Cells were plated at 500 cells/well (NCI-H292) or 1,000 cells/well (NCI-H322) in opaque white 96-well tissue culture-treated plates (Nunc) in 1004/well of RPMI medium (Gibco) containing GlutaMAX™ and 10 mM HEPES, supplemented with 10% heat inactivated fetal bovine serum (Gibco) and 1% penicillin/streptomycin (Gibco), and allowed to attach overnight at 37° C. in a humidified 5% CO2 atmosphere. Cells were treated by addition of 54/well of phosphate-buffered saline (PBS) containing a concentration range of EGFR-binding FN3 domains. […] Viable cells were detected by addition of 754/well of CellTiter-Glo® reagent (Promega), followed by mixing on a plate shaker for 2 minutes, and incubation in the dark at room temperature for a further 10 minutes. Plates were read on a SpectraMax M5 plate reader (Molecular Devices) set to luminescence mode, with a read time of 0.5 seconds/well against a blank of medium only. […] IC50 values were determined by fitting data to the equation for a sigmoidal dose response with variable slope using GraphPad Prism 4 (GraphPad Software).
On the technique in general: ATP-based viability assays read luminescence as a measure of living cells.

The next assay deals with EGFR (Homo sapiens, UniProt P00533). The assay can be described thus: Inhibition of EGF-stimulated EGFR phosphorylation in A431 cells (phospho-EGFR assay). Type of assay: cell-based. The settings on record: 50 ng/mL EGF, EGFR Tyr1173. How it is done:
Purified EGFR-binding FN3 domains were tested for their ability to inhibit EGF-stimulated phosphorylation of EGFR in A431 cells at a single concentration. EGFR phosphorylation was monitored using the EGFR phospho(Tyr1173) kit (Meso Scale Discovery). Cells were plated at 20,000/well in clear 96-well tissue culture-treated plates (Nunc) in 100 μL/well of RPMI medium (Gibco) containing GlutaMAX™ with 10% fetal bovine serum (FBS) (Gibco) and allowed to attach overnight at 37° C. in a humidified 5% CO2 atmosphere. Culture medium was removed completely and cells were starved overnight in 100 μL/well of medium containing no FBS at 37° C. in a humidified 5% CO2 atmosphere. […] Signals were detected by addition of 150 μL/well of Read Buffer (Meso Scale Discovery) and reading on a SECTOR® Imager 6000 instrument (Meso Scale Discovery) using manufacturer-installed assay-specific default settings. Percent inhibition of the EGF-stimulated positive control signal was calculated for each EGFR-binding FN3 domain.
Data were plotted as electrochemiluminescence signal against the logarithm of the FN3 domain molar concentration and IC50 values were determined by fitting data to a sigmoidal dose response with variable slope using GraphPad Prism 4 (GraphPad Software). […]

B1: P54AR4-47: EGFR-binding FN3 domain, SEQ ID NO: 20 (protein)
chain: LPAPKNLVVSEVTEDSLRLSWGYNGDHFDSFLIQYQESEKVGEAINLTVPGSERSYDLTGLKPGTEYTVSIYGVHNVYKDTNMRGLPLSAEFTT
modifications: EGFR binding FN3 domain
Regarding B1, the values for the IC50 with NCI-H322 cells and with EGFR were 39 nM and 295 nM, respectively.
